Test results as given in patent publication US20230235054A1 (BIOATLA, published 2023).

Target: T1, huNectin4-His (human, UniProt Q96NY8 32-349)
T1 construct: Immobilized on the SPR chip; also called humanNectin4; human Nectin4; not shown: His tag
T1 sequence (looked up): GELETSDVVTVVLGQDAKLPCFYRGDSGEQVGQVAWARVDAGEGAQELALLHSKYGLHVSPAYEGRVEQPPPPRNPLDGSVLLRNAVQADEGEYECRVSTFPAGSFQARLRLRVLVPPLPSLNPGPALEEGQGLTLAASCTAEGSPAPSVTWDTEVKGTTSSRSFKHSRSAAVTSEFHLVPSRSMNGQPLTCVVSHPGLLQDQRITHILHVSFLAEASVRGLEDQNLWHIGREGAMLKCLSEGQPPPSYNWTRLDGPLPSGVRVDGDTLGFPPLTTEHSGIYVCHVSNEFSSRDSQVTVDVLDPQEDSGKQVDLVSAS
Assay: SPR, huNectin4-His immobilized, pH 6.5; pH 6.5
Procedure: Binding kinetics of anti-Nectin4 antibodies were measured by surface plasmon resonance using a SPR2/4 instrument (Sierra Sensors, Hamburg, Germany) and flat amine sensor chips. The SPR sensor contained four flow cells (FC1-FC4), each of which was addressed individually or in groups. huNectin4-His was immobilized in FC2, and cynoNectin4-mFc in FC4. No protein was immobilized in FC1 and FC3 which were used as control surfaces for FC2 and FC4, respectively.
All injections were done at a flow rate of 25 μL/min at 25° C. The sensor surface was activated with 1-ethyl-3-(3-dimethylaminopropyl)-carbodiimide (EDC) and N-hydroxysuccinimide (NHS) (200 mM/50 mM) for 480 seconds. HuNectin4-His (2 μg/mL in 10 mM NaAc, pH4.5) was injected for 480s and the surface was inactivated by injecting 1M ethanolamine-HCl for 480s. CynoNectin4 was immobilized using the same conditions as described for huNectin4-His, except that the cynoNectin4 was diluted into 10 mM NaAc buffer having pH 5.0. The control surface was activated and deactivated using the same conditions, but without injecting protein. PBST buffer (PBS pH 7.4 with 0.05% TWEEN20™) was used as running buffer for the surface preparation. The running solution was switched to PBST with 30 mM sodium bicarbonate with the pH adjusted as indicated in the figures before the analyte injections. The instrument was equilibrated with the running solution for one hour before the first analyte injection.
The off-rate was measured for 360s. The chip surface was regenerated after each cycle of interaction analysis by injecting 6 μL of 10 mM glycine (pH 2.0). Flow cells 1 and 3 without immobilized protein were used as control surfaces for reference subtraction.

Kd: 9.31 nM
koff: 0.00574 s⁻¹
kon: 617000 M⁻¹ s⁻¹
B1: BAP-143-00-02 (antibody, V domains shown)
VH: EVQLVESGGGLVQPGGSLRLSCAASGFTFSSYNMNWVRQAPGKGLEWVSYISSSSSTIYYADSVKGRFTISRDNAKNSLSLQMNSLRDEDTAVYYCARAYYYGMDVWGQGTTVTVSS
VL: DIQMTQSPSSVSASVGDRVTITCRASQGISGWLAWYQQKPGKAPKFLIYAASTLQSGVPSRFSGSGSGTDFTLTISSLQPEDFATYYCQQANSEPPTFGGGTKVEIK
notes: Used as a conjugate with a linker payload (CAB ADC)
